Assay results taken from patent publication US8969530B2, “Anti-clathrin heavy chain monoclonal antibody for inhibition of tumor angiogenesis and growth and application thereof” (Academia Sinica, priority 2011, dated 2015).
Where a SMILES comes first, the peptide text is derived from it. The star is where a group is joined. Cbz = O=C(OCc1ccccc1)*

Tests used:
[1] = tested on: HIF-1α protein in MIA PaCa-2 cells; test: HIF-1α protein level and stability in CHC knockdown cells (Western blot); format: cell-based, human; conditions: MG132 10 μM, DFX 100 μM
Procedure: (§1) Cells were extracted with RIPA buffer and the supernatants were immunoprecipitated using either anti-CHC antibody, Pa65-2, mAb X-22 (Affinity), or anti-HIF-1α antibody (BD), then analyzed by immunoblotting. The signals were developed using enhanced chemiluminescence reagents (ECL) (Thermo).
(§2) For hypoxia experiments, MIA PaCa-2 cells were grown in a Ruskinn Hypoxic Chamber (APM-50D, 18 Astec, Japan) and treated with either 1% O2, 5% CO2 for 18 h, or given DFX, deferoxamine (100 μM, Sigma) treatment for 5 or 16 h. For proteasome inhibitor treatment, MG132 (10 μM, Sigma) was added to culture medium then incubated 5 to 17 h.

pancreatic cancer = conditions: cited from earlier work
HUVECs [2] = test: Apoptosis in HUVEC by TUNEL staining; format: cell-based, human
Procedure: (§3) CD31 staining and TUNEL assays were carried out as described previously. The slides were then visualized under a fluorescent microscope and analyzed with MetaMorph software.

MIA PaCa-2 cells [3] = test: MTT cell proliferation assay; format: cell-based, human; conditions: 50 μg/ml for 3 days
Procedure: Cells were cultured in 96-wells plates. To reduce cancer growth, the cells were culture in Dulbecco's modified Eagle's medium (DMEM) containing 50 μg/ml Pa65-2 or NM-IgG. After incubating for 0, 1, 2, 3 days, the cells were subjected to an MTT assay. The absorbance was determined with a microplate reader at 540 nm. Each assay was repeated for three times.

[4] = tested on: blood vessels of human pancreatic cancer tissues; test: Immunofluorescent co-staining of Pa65-2 and UEA-1 in pancreatic cancer tissue
Procedure: (§4) The human pancreatic cancer gene expression arrays (Origene) were analyzed by an ABI9600 thermocycler (Applied Biosystems). Tissue arrays were purchased from Pantomics Inc. Tissue sections were stained with antibodies specific for CHC (Pa65-2), VEGF (GeneTex), HIF-1α (Millipore), NM-IgG, and UEA-1-FITC (Vector). Quantification of DAB intensity was by HistoQuest software (TissueGnostics). The protocol was approved by the institutional Review Board of Human Subjects Research Ethics Committee of Academia Sinica (Taipei).

MIA PaCa-2 cells [5] = test: EGF and transferrin uptake (internalization) assay; format: cell-based, human; conditions: pretreated 50 μg/ml at 37° C.
Procedure: EGF and Tf uptake assays were carried out using a fluorescence-based approach, as previously described (26). Cells were washed with serum-free medium, incubated in 1% BSA in serum-free medium at 37° C., and pretreated with Pa65-2 or NM-IgG (50 μg/ml) at 37° C. They were then incubated with or without Alex 555-EGF (1 μg/ml, INVITROGEN™) or Alex 555-transferrin (50 μg/ml) at 37° C. or 4° C. The cells were imaged using a Leica TCS SP confocal microscope (Leica).

[6] = molecular target: T1, human clathrin heavy chain (CHC) (Homo sapiens, UniProt Q00610); test: Target identification: immunoaffinity, LC-MS/MS, immunoprecipitation and Western blot; format: binding; conditions: immunoprecipitation and Western blot in parallel with mAb X-22; CHC knockdown
T1 construct: endogenous in cells; host or cells: MIA PaCa-2 (human pancreatic adenocarcinoma cells)
T1 sequence (Q00610 whole entry): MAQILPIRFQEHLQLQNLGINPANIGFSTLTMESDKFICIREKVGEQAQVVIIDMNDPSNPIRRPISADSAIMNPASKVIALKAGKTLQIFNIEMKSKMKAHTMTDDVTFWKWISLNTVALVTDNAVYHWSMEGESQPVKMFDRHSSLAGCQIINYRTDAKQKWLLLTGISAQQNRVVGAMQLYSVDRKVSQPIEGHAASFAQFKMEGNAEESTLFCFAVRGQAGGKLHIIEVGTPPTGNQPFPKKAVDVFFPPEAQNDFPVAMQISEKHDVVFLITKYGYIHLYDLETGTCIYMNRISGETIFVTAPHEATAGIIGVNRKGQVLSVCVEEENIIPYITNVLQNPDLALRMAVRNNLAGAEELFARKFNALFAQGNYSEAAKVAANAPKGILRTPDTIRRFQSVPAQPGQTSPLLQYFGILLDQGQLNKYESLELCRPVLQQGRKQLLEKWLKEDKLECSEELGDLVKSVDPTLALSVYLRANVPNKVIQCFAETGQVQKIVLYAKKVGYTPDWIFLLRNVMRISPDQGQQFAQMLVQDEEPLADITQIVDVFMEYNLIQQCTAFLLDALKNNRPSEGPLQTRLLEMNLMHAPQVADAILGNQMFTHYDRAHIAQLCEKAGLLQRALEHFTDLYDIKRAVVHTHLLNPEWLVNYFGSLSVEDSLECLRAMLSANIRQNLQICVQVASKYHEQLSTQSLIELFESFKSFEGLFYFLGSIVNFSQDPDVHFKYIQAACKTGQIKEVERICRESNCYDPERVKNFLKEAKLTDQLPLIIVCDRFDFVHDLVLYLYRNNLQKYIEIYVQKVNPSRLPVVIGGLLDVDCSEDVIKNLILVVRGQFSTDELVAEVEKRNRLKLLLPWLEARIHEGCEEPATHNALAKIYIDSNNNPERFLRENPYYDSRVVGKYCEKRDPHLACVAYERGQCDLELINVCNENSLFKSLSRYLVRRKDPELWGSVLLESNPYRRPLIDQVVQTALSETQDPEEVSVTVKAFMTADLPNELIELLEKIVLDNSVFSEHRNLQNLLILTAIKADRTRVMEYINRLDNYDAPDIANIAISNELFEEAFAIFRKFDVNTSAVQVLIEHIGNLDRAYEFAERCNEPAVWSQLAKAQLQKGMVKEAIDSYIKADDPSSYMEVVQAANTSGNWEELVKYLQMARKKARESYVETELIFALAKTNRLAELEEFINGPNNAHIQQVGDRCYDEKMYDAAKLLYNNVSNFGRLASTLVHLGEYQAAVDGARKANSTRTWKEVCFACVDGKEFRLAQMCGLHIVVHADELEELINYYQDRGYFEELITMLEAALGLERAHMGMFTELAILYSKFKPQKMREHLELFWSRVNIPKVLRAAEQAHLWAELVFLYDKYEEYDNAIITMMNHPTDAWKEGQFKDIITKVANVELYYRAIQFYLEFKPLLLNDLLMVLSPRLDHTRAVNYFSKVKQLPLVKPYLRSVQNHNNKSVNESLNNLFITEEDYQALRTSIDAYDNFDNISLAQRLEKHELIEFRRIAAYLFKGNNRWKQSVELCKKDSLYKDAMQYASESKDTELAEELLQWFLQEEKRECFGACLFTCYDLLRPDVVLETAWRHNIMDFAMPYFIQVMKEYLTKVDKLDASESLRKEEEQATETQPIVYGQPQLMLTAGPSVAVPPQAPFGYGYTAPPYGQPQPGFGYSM
Procedure: MIA PaCa-2 cell lysates were purified by protein G sepharose (GE), coupled with Pa65-2 and eluted with elution buffer. The eluates were separated by SDS-PAGE. The band of interest was cut from the gel, reduced with dithioerythreitol (DTE) alkylated with iodoacetamide (IAA) and digested with trypsin for 16 h at 37° C. The digested peptides were analyzed by LC-MS/MS sequencing in the Core Facility for Proteomics and Structural Biology Research at Academia Sinica (Taipei).
as §1

MIA PaCa-2 cells [7] = test: Binding of Pa65-2 to cells by ELISA, flow cytometry and immunofluorescence; format: cell-based, human; conditions: flow cytometry, immunofluorescent analyses
Procedure: Cells were cultured in 96-well polystyrene plates for 3 days and then fixed with 2% paraformaldehyde. After blocking and washing twice with PBS/0.1 % Tween 20 (PBST0.1), the hybridoma supernatants were added and the plates were incubated for 2 h at room temperature. This was followed by washing and incubating with horseradish peroxidase (HRP)-conjugated goat anti-mouse IgG for 1 h. The colorimetric reaction was developed with the substrate ortho-phenylene-diamine (OPD) according to the manufacturer's instructions (Sigma), and was stopped by adding 3 N HCl. Absorbance at 490 nm was measured using a microplate reader. Each control and test group was tested in triplicate. Each experiment was repeated at least three times. To analyse binding, cells (1×10^5 cells per tube) were prepared, washed, centrifuged, and resuspended in 100 μl of PBS/1% FCS containing Pa65-2 or NM-IgG. Cells were incubated at 4° C. for 1 h, washed twice with PBS/1% FCS and stained with […] isothiocyanate (FITC)-labeled goat anti-mouse IgG at 4° C. for 20 min. The stained cells were washed twice and fluorescence signals were measured using a FACScan (BD). […]
(§5) 3×10^3 cells were cultured into each well of 96-well polystyrene plates for 3 days and fixed with 2% paraformaldehyde. […] Absorbance at 490 nm was measured using a microplate reader. […]

MIA PaCa-2 cells [8] = test: Apoptosis assay (FLICA caspase activity); format: cell-based, human; conditions: 24 h
Procedure: Apoptosis of cultured cells was verified through the detection of caspase activity using sulforhodamine FLICA apoptosis detection kit (Immunochemistry Technologies). Cells in 96-well culture plates were treated with Pa65-2 or NM-IgG for 24 h. After incubating with FLICA, cells was read at ex/era of 550/595 nm with fluorescence plate reader (Molecular Devices).

[9] = tested on: MDAMB-231 (breast cancer), CL1-5 (lung cancer), SKOV3 (ovary cancer) and SAS (oral cancer); test: ELISA and Western blot binding on other cancer cell lines; format: cell-based, human; conditions: MDAMB-231, CL1-5, SKOV3, SAS
Procedure: as §1
(§6) Cells were cultured in 96-well polystyrene plates for 3 days and then fixed with 2% paraformaldehyde. After blocking and washing twice with PBS/0.1 % Tween 20 (PBST0.1), the hybridoma supernatants were added and the plates were incubated for 2 h at room temperature. This was followed by washing and incubating with horseradish peroxidase (HRP)-conjugated goat anti-mouse IgG for 1 h. The colorimetric reaction was developed with the substrate ortho-phenylene-diamine (OPD) according to the manufacturer's instructions (Sigma), and was stopped by adding 3 N HCl. Absorbance at 490 nm was measured using a microplate reader. Each control and test group was tested in triplicate. Each experiment was repeated at least three times. […] The stained cells were washed twice and fluorescence signals were measured using a FACScan (BD).
as §5

[10] = tested on: HIF-1α expression and VEGF secretion in MIA PaCa-2 cells; test: Western blot of HIF-1α expression and VEGF secretion under DFX hypoxia; format: cell-based, human; conditions: DFX 100 μM, 50 μg/ml, 48 h
Procedure: as §1, §2

HUVECs [11] = test: Inhibition of HUVEC VEGF internalization; format: cell-based, human; conditions: 50 μg/ml, VEGF-A 40 ng/ml
Procedure: HUVEC were washed with serum-free medium, incubated in 1% BSA in serum-free medium at 37° C., and pretreated with Pa65-2 or NM-IgG (50 μg/ml) at 37° C. They were then incubated with or without VEGF-A (40 ng/ml) at 37° C. or 4° C. After cells were washed, fixed and made permeable. The permeable cells were incubated with anti VEGF-A antibody (A-20, Santa Cruz). Finally, cells were stained using Rhodamine-conjugated secondary antibodies.

[12] = tested on: MIA PaCa-2-derived pancreatic cancer xenografts; test: Antitumor efficacy of Pa65-2 in pancreatic cancer xenografts; format: in vivo, NOD/SCID mice
Procedure: All animal experiments were performed as per the guidelines of the National Laboratory Animal Center. The protocol was approved by the Committee on the Ethics of Animal Experiments of Academia Sinica (Taipei). A xenograft model was generated by injecting NOD/SCID mice with MIA PaCa-2 cells transduced with either CHC shRNA or control vector. The two kinds of transduced cells were injected into different lateral sides of the hind limbs of eight animals at the same time. For analysis of antitumor efficacy of Pa65-2, NOD/SCID mice bearing MIA PaCa-2-derived pancreatic cancer xenografts (˜50 mm^3) were intravenously injected in the tail vein with Pa65-2, or gemcitabine, or NM-IgG, or equivalent
volumes of PBS. Tumors were measured by calipers every three days, and mice were observed routinely for weight loss as a symptom of drug toxicity. The tumor volumes were calculated as length×(width)^2×0.52. Animals were treated following the guidelines established by Academia Sinica (Taipei).
as §3

[13] = tested on: human pancreatic cancer tissue array; test: Immunohistochemistry of Pa65-2 on human pancreatic cancer tissue arrays; conditions: for Labeling Score: score 0-4
Procedure: as §4
We modified the “Quick Score” methods by reducing the original scales (Siegel et al. (2012) “Cancer statistics 2012” CA Cancer J Clin, 62, 10-29). Two indices were used in evaluating the staining results of tumors. Labeling Index (LI) indicates the number of tumor cells that were immunostained (or “positive cells”) as a proportion of the overall number of cells. A score on a scale of 0-2 was assigned; 0-10%=0, 11-49%=1, 50-100% =2. The second index is the Intensity Index (II), which measures the average intensity of the immunostaining. A score on a scale of 0-2 was assigned; no staining=0, weak staining=1, and strong staining=2. The scores from these two indices were added to give the tumor Labeling Score (LS), which ranges from 0-4.

[14] = tested on: pancreatic adenocarcinoma cell lines MIA PaCa-2 and AsPC-1; test: ELISA and Western blot binding screen on pancreatic adenocarcinoma cell lines; format: cell-based, human; conditions: MIA PaCa-2, AsPC-1 versus normal HUVEC, NNM, CCD-1112Sk
Procedure: as §1, §6, §5

MIA PaCa-2 cells [15] = test: Matrigel invasion assay; format: cell-based, human
Procedure: RT-CES (ACEA), a microelectronic cell sensor system, was used to count tire number of living cells. Cells (5×10^3) were seeded into each sensor-containing well in microliter plates. The electronic sensors provided a continuous (every 6 h), quantitative measurement of the cell index in each well. Cell growth was measured for 72 h, and cell indices for each well were recorded at all time points. Cell invasion was assayed in 24-well Biocoat Matrigel invasion chambers (8 μm; Millipore) according to the manufacturer's directions. Cells were counted under a microscope in five predetermined fields. Assays were performed in triplicate.

With CC(C)C[C@@H](C=O)NC(=O)[C@H](CC(C)C)NC(=O)[C@H](CC(C)C)NC(=O)OCc1ccccc1 [MG132] (Cbz-Leu-Leu-Leu-aldehyde) the “decreased protein level of HIF-1α in CHC knockdown cells” value [1] was “rescued”.

For Nc1ccn([C@@H]2O[C@H](CO)[C@@H](O)C2(F)F)c(=O)n1 [gemcitabine], the “effectiveness in treating pancreatic cancer” value (pancreatic cancer; most commonly used medicine) is given as “only moderately effective”.

In the case of bevacizumab, the “improvement in overall survival of pancreatic cancer patients” value (pancreatic cancer; clinical trial, in combination with small molecule drugs) is listed as “no significant improvement”.

B1: Pa65-2: monoclonal antibody that recognizes human clathrin heavy chain (CHC); VH SEQ ID NO: 2, VL SEQ ID NO: 3 (antibody, listed as Homo sapiens, V domains shown)
VH: EVKLVESGGGLVKPGGSLNISCAASGFTFSNYVMSWVRQTPEKRLEWVATISSGDNYMYYPDSVKGRFTISSDNAKNTLFLQMSSLRSEDTALYYCARHFDNYEGNSMDYWGQGTSVTVSSAKTTPPSDYPLA
VL: DIVLTQSPATLSVTPGDSVSLSCRASQSIRSNLHWYQQKSHESPRLLIKYASQSISGIPSRFSGSGSGTDFILSINSVATEDFGVYFCQQSNSWPLTFGAGTKLELKRADAAPTVS
In the case of B1, the “apoptosis in HUVECs” value (HUVECs [2]) is reported as “induced apoptosis”, the cancer cell proliferation (MIA PaCa-2 cells [3]) is reported as “inhibited” and the “colocalization of Pa65-2 antigen with endothelial cell marker UEA-1” value [4] is reported as “colocalized”. The EGF uptake (MIA PaCa-2 cells [5]; Alex 555-EGF 1 μg/ml) was “blocked”, the transferrin uptake (MIA PaCa-2 cells [5]; Alex 555-transferrin 50 μg/ml) was “blocked” and the “specificity for CHC” value [6] was “specifically recognized CHC”. For the same molecule, the “recognition of MIA PaCa-2 cells” value (MIA PaCa-2 cells [7]) was “specifically recognize MIA PaCa-2 cells”, the cell apoptosis (MIA PaCa-2 cells [8]) was “induced cell apoptosis” and the “binding to other types of cancer cell lines” value [9] was “can also bind”. The “hypoxia-induced HIF-1α expression” value [10] was “suppressed”, the VEGF secretion ([10]; culture media) was “suppressed” and the VEGF internalization (HUVECs [11]) was “suppressed VEGF internalization”. The “average tumor volume smaller than the control groups” value ([12]; 10 mg/kg i.v. every three days, day 36, n=6, P<0.05) was “about 2 fold”, the “blood vessels in tumor sections” value ([12]; CD31 staining, P<0.05) was “decreased” and the “inhibitory effect on tumor growth compared with gemcitabine” value ([12]; Pa65-2 10 mg/kg versus gemcitabine 15 mg/kg, i.v.) was “equivalent effects”. The “apoptotic cells in tumor sections” value ([12]; TUNEL, n=6, P<0.01) was “increased”, the “staining of pancreatic cancer tissues” value ([13]; 46 specimens, tissue array) was “positively stained” and the “Labeling Score” value ([13]; Adenocarcinoma I, stage T2N0M0) was 3. For the same molecule, the “Labeling Score” value ([13]; Adenocarcinoma I, stage T2N1M0) was 2, the “Labeling Score” value ([13]; Adenocarcinoma I, stage T3N0M0) was 3 and the “Labeling Score” value ([13]; Adenocarcinoma I, stage T3N1M0) was 3. For the same molecule, the “Labeling Score” value ([13]; Adenocarcinoma II, stage T2N0M0) was 2, the “Labeling Score” value ([13]; Adenocarcinoma II, stage T3N0M0) was 3 and the “Labeling Score” value ([13]; Adenocarcinoma II, stage T3N1MX) was 3. For the same molecule, the “Labeling Score” value ([13]; Adenocarcinoma II, stage T4N1M1) was 4, the “Labeling Score” value ([13]; Adenocarcinoma III, stage T3N0M0) was 3 and the “Labeling Score” value ([13]; Adenocarcinoma III, stage T3N1MX) was 3. The “Labeling Score” value ([13]; Normal Pancreas) was 0, the “staining of normal pancreatic tissues” value ([13]; two normal pancreatic tissues, tissue array) was “two normal pancreatic tissues were not” and the “binding affinity to pancreatic cancer cell lines” value [14] was “strong binding affinity”. For the same molecule, the “migration (FIG. 5C)” value (MIA PaCa-2 cells [15]) was “inhibited”.
